Experimental data from paper doi:10.1101/2025.09.11.675134, “Biodistribution-Driven Discovery Identifies a Glycosidase-Cleavable Linker to Reprogram Radiotheranostics” (bioRxiv, 2025).
“Also recorded” adds a separate entry of the source. Like-named read-outs stand apart in the source and are kept apart here.

Key:
[1] = Urine metabolite analysis by radio-HPLC; assay type: in vivo; settings: normal non-tumor-bearing athymic nu/nu mice, i.v. 13–15 MBq in 200 μL PBS (4 μg), urine 1 h post-injection, n = 3
Method: To elucidate the role of linker cleavage in reducing renal retention, we performed metabolite analysis of ^86Y-labeled DOTA-TATE derivatives in normal, non-tumor-bearing athymic nu/nu mice. […] These samples were analyzed by radio-HPLC alongside synthetic standards corresponding to the expected cleavage products: ^86Y-DOTA-G-M-OH and ^86Y-DOTA-NHMe (Fig. 4A).

[2] = test system: β-galactosidase; settings: β-galactosidase 10 KU/mL in PBS (10 mM, pH 7.2), 37 °C; for Cleaved product 86Y-DOTA-NHMe, % of the total activity: mixed 1:1 (v/v), radio-TLC
Method: To further confirm β-galactosidase-specific cleavage, ^86Y-DOTA-β-Gal-TATE was incubated in vitro with β-galactosidase and analyzed by radio-TLC over time.
To analyze radioactive urine metabolites, ^86Y-DOTA-MVK(ε)-TATE or ^86Y-DOTA-β-Gal-TATE (13 – 15 MBq in 200 μL PBS, 4 μg) was intravenously injected into normal, non-tumor-bearing athymic nu/nu mice (n = 3). As reference controls, standard metabolites of ^86Y-DOTA-MVK(ε)-TATE (^86Y-DOTA-G-M-OH) and ^86Y-DOTA-β-Gal-TATE (^86Y-DOTA-NHMe) were also prepared and administered to normal athymic, non-tumor-bearing nu/nu mice. Urine samples were collected 1 hour post-injection, centrifuged at 10,000 rpm, and subsequently analyzed by radio-HPLC for each ^86Y-labeled DOTA-TATE variant. The radio-HPLC peaks were compared with those of the standard metabolites (^86Y-DOTA-G-M-OH or ^86Y-DOTA-NHMe). Radio-HPLC analysis was conducted under the same conditions as those used for analyzing the radiolabeled the DOTA-TATE variants, using an Agilent 1260 Infinity II system with a TSK-gel Octadecyl-4PW column and a gradient elution method. For in vitro enzyme-mediated cleavage, β-galactosidase was prepared in PBS (10 mM, pH 7.2) at 10 KU/mL. ^86Y-DOTA-β-Gal-TATE (13–15 MBq in 200 μL PBS) was mixed 1:1 (v/v) with β-galactosidase solution and incubated at 37 °C. Aliquots were taken at 1, 4, and 24 h, centrifuged at 10,000 rpm, and the supernatants were analyzed by radio-TLC. The 24 h sample was further examined by radio-HPLC to confirm metabolite identity.

[3] = test system: AR42J xenografts; test: PET/CT quantification of 86Y-labeled variants in AR42J xenograft mice; assay type: in vivo; settings: PET SUVmax, 24 h post-injection
Method: For studies involving three variants (DOTA -TATE, DOTA-MVK(ε)-TATE, and DOTA-β-Gal-TATE), AR42J cells (5 × 10^6 cells per mouse) were subcutaneously inoculated into the right shoulder of the mice. Tumors were allowed to grow for 3 weeks, reaching a volume of 100 –200 mm³ before being used in subsequent experiments. For biodistribution or PET imaging studies, mice bearing subcutaneous AR42J tumors were administered 1.4 – 1.8 MBq (1 μg) of 111In-labeled DOTA-TATE variants or 2.7 – 4.9 MBq (1 μg) of 86Y-labeled DOTA-TATE variants via […]
tail vein injection. […]
PET imaging to assess the uptake of three 86Y-labeled DOTA-TATE variants (2.7 – 4.9 MBq, 1 μg) in the kidney and tumor was performed at 1, 4, and 24 hours post-injection (n = 3 per cohort) in mice bearing AR42J tumors using the MRS*PET/CT 120 scanner (MR Solutions, Guildford, UK). PET/CT data acquisition was managed using Preclinical Scan software (version 4.2.4.0, MR Solutions). Mice were anesthetized with 2% isoflurane, and static PET sc ans were acquired over 10 min. CT scans were obtained for attenuation correction and anatomical co-registration.
PET data were reconstructed using three-dimensional ordered-subsets expectation maximization, and were subsequently normalized, decay - and dead-time–corrected prior to analysis. PET/CT images were analyzed using MIM software (version 7.2.7, MIM Software Inc., Beachwood, OH, USA), and the quantitative evaluation of the maximum standardized uptake (SUVmax) and the average standardized uptake values (SUVmean) in the kidney and tumor were also performed. […]

[4] = test system: AR42J xenografts; test: Targeted alpha particle therapy, one-cycle regimen; assay type: in vivo, athymic nu/nu mice
Method: Building on the favorable dosimetry profiles observed for the cleavable linker-modified constructs, we next evaluated their therapeutic efficacy in vivo following one cycle of ^225Ac-labeled variants (Fig. 5C; Fig. S19A). […] Tumor growth, overall survival, and body weight were monitored over 95 days.
(§1) Mice received either a one-cycle regimen (n=8 per cohort) or a two-cycle regimen (n=6 per cohort) at an 8-day interval. Tumor volume and body weight were measured twice weekly after treatment using a digital caliper. Tumor volume was calculated using the formula V (mm^3) = (l × w^2)/2, where l (length) was the larger of the two perpendicular tumor axes, and w (width) was the smaller axis. Survival was monitored, with the endpoint defined as a tumor volume exceeding 2000 mm^3, a weight loss greater than 20% from baseline, or signs of distress in the mice.

[5] = test system: AR42J xenografts; test: Targeted alpha particle therapy, two-cycle regimen; assay type: in vivo, athymic nu/nu mice; settings: 2 × 148 kBq
Method: To further assess therapeutic efficacy, AR42J xenograft-bearing mice received two cycles of ^225Ac-labeled constructs (2 × 148 kBq, administered 8 days apart) (Fig. 5D). […] Complete tumor regression occurred in two of six animals in each cleavable linker group.
as §1

Row | SMILES | Share of total urinary radioactivity corresponding to the cleaved metabolite (86Y-DOTA-G-M-OH or 86Y-DOTA-NHMe) [1] | Compound converted to 86Y-DOTA-NHMe ([2]; 24 h sample, radio-HPLC (peak at 2.6 min)) | Cleaved product 86Y-DOTA-NHMe, % of the total activity ([2]; 1 h) | Cleaved product 86Y-DOTA-NHMe, % of the total activity ([2]; 4 h) | Cleaved product 86Y-DOTA-NHMe, % of the total activity ([2]; 24 h) | T/K ratio higher than that of 86Y-DOTA-MVK(ε)-TATE [3] | T/K ratio higher than that of 86Y-DOTA-TATE [3] | Median survival time ([4]; 148 kBq (1 μg) per mouse, AR42J xenograft-bearing mice, n = 8, Kaplan–Meier, vehicle 16 days) | Tumor growth ([4]; 148 kBq per mouse, monitored over 95 days, n = 8) | Body weight ([4]; 148 kBq per mouse, n = 8) | Tumor control ([5]; 8-day interval, n = 6) | Median survival time ([5]; 8 days apart, AR42J xenograft-bearing mice, n = 6, Kaplan–Meier, vehicle 26.5 days) | Mice with tumor volumes below 100 mm^3 by the final monitoring point ([5]; n = 6)
1 | C[C@@H](O)[C@H](NC(=O)[C@@H]1CSSC[C@H](NC(=O)[C@@H](Cc2ccccc2)NC(=O)CCCC(=O)Nc2cc(COC(=O)N(C)CCNC(=O)CN3CCN(CC(=O)O)CCN(CC(=O)O)CCN(CC(=O)O)CC3)ccc2O[C@@H]2O[C@H](CO)[C@H](O)[C@H](O)[C@H]2O)C(=O)N[C@@H](Cc2ccc(O)cc2)C(=O)N[C@H](Cc2c[nH]c3ccccc23)C(=O)N[C@@H](CCCCN)C(=O)N[C@@H]([C@@H](C)O)C(=O)N1)C(=O)O [^86Y-DOTA-β-Gal-TATE, metal not drawn] | 47.4% | 90.7% | 24.6% | 50.2% | 88.8% | approximately 2.7 fold | over 10 fold |  |  |  |  |  | 
2 | C[C@@H](O)[C@H](NC(=O)[C@@H]1CSSC[C@H](NC(=O)[C@@H](Cc2ccccc2)NC(=O)CCCC(=O)Nc2cc(COC(=O)N(C)CCNC(=O)CN3CCN(CC(=O)O)CCN(CC(=O)O)CCN(CC(=O)O)CC3)ccc2O[C@@H]2O[C@H](CO)[C@H](O)[C@H](O)[C@H]2O)C(=O)N[C@@H](Cc2ccc(O)cc2)C(=O)N[C@H](Cc2c[nH]c3ccccc23)C(=O)N[C@@H](CCCCN)C(=O)N[C@@H]([C@@H](C)O)C(=O)N1)C(=O)O [^225Ac-DOTA-β-Gal-TATE, metal not drawn] |  |  |  |  |  |  |  | 86 days | most sustained inhibition of tumor growth, with minimal progression observed up to day 35 post-treatment | gradually regained weight by day 14, maintaining stable body weights for the remainder of the study | significantly smaller; also recorded: prolonged tumor control with sustained growth inhibition | 191.5 days | all six
